Data taken from patent US12612465B2, “Formulations comprising PCSK9 specific monoclonal antibodies” (Amgen Inc., priority 2012, dated 2026).

Biological target: T1, human PCSK9 (Homo sapiens, UniProt Q8NBP7, E620G/G670E/V474I)
T1 construct: made in house
Experiment: Serum lipids in C57BL/6 mice expressing human PCSK9 by AAV
Format: in vivo, mouse
Details: 30 mg/kg IV bolus
Experimental: Briefly, 120 C57BL/6 mice expressing human PCSK9 were generated by infection with an engineered adeno associated virus (AAV) coding for human PCSK9, resulting in elevated levels of circulating low density lipoprotein cholesterol (LDL-C). Serum cholesterol analysis was performed using the Cobas Integra 400 plus chemistry analyzer (Roche Diagnostics, Indianapolis, Ind.). Animals were randomized into treatment groups with similar levels of non-HDL-C (LDL-C and VLDL-C), HDL-C and TC. On treatment day 0 (T=0) a subset of mice was euthanized and serum collected to establish that day's baseline levels. Remaining mice were then administered 11F1, 8A3 or anti-keyhole limpethemocyanin (KLH) IgG2 control antibody at 30 mg/kg. via tail vein injection. At days 1 through 5 following injection, subsets of mice were euthanized and whole blood was collected from the vena cava and allowed to coagulate for 30 minutes at room temperature. Following centrifugation at 12,000 rpm with a bench top centrifuge for 10 minutes, serum was collected. Serum cholesterol analysis was performed using the Cobas Integra 400 plus chemistry analyzer.
All cholesterol results were expressed as the mean±standard error of the mean. All pharmacokinetic data were expressed as the mean±standard deviation. The p value of 0.05, determined by 1-way ANOVA was used as a threshold to determine statistical significance between the anti-KLH IgG2 control antibody injected animals and those dosed with anti-PCSK9 antibody at the same time point.

T1 sequence (Q8NBP7 153-692 V474I/E620G/G670E): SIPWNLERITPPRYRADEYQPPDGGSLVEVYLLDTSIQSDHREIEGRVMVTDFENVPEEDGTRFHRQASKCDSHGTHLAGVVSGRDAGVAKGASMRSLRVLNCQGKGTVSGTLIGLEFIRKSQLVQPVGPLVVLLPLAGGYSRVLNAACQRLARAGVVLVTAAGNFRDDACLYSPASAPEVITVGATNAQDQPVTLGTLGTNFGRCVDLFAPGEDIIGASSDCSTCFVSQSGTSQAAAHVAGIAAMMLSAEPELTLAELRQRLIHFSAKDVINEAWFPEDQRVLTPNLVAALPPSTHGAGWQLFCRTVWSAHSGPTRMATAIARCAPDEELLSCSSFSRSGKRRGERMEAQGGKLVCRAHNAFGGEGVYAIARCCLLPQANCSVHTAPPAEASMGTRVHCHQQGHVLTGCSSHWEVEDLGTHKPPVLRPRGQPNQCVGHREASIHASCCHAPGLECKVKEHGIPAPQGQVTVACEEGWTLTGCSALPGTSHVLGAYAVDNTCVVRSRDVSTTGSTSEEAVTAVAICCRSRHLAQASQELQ

Substance: 11F1: anti-PCSK9 ABP, light/heavy variable region SEQ ID NO 465/463 [Antibody 11F1]
- lowering of HDL-C vs control animals (any time point): No significant lowering of HDL-C
- lowering of TC vs control animals (day 4 only): 22%
- maximum lowering of serum non-HDL-C vs control animals (significant at days 1, 2 and 4 post-injection): 59%
